Residue numbers refer to the chain shown, from its start. In names and notes the source's numbering stands.
Tests used:
[1] = target: T1, mouse NKG2D (mouse, UniProt O54709 94-232, limits assumed); assay: ELISA on mouse NKG2D, absorbance against nM MicAbody
T1 construct: also called mouse wild-type NKG2D
T1 sequence (looked up): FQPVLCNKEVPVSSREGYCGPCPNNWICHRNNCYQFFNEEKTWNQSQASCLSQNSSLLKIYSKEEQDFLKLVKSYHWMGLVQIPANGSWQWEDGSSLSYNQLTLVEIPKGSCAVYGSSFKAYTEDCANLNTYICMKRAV

[2] = target: Fc-iNKG2D.YA (NKG2D ectodomain Y152A fused to the C-terminus of human IgG1 Fc) (human) (UniProt P26718); assay: ELISA; wells coated with Fc-iNKG2D.YA, R3Mab heavy-chain MicAbody titrated
[3] = target: Fc-wtNKG2D (wild-type NKG2D ectodomain fused to the C-terminus of human IgG1 Fc) (human) (UniProt P26718); assay: ELISA; wells coated with Fc-wtNKG2D, R3Mab heavy-chain MicAbody titrated
[4] = target: T2, A1-A2 domain of human MICA*001 with C-terminal 6x-His tag (monomer) (human, UniProt Q29983 24-205); assay: Octet BLI; Fc-wtNKG2D captured on anti-human IgG Fc (AHC) tips, dilution series of His-tagged monomeric ligand
T2 construct: range 24-205; also called MIC-His ligand
T2 sequence: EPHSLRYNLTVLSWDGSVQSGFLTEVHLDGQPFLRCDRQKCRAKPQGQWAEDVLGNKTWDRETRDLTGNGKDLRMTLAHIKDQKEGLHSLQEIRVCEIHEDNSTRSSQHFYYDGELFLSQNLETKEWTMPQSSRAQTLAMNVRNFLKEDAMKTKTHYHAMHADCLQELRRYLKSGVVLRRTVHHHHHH
From the text: Note that all axes are to the same scale (Binding-0 nm, 0.4 nm. 0.8 nm, 1.2 nm (y-axis); Time-0 s, 50 s, 100 s, 150 s, 200 s, 250 s, 300 s, 350 s (x-axis). Data is representative of a single experiment.

[5] = target: T3, His-tagged monomeric ULBP2 R81W (human, UniProt Q9BZM5 29-212); assay: Octet BLI; Fc-wtNKG2D captured on AHC tips, dilution series of His-tagged monomeric ligand
T3 construct: range 29-212; Construct limits are stated only for wild-type ULBP2-His; position 81 counts on the mature protein, not on the UniProt entry
T3 sequence: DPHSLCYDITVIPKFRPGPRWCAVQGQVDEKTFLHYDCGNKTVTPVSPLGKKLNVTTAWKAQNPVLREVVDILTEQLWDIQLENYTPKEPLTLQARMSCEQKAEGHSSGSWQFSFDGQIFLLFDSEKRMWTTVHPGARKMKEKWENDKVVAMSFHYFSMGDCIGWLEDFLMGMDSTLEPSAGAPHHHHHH
From the text: (§1) YA. […] YA were captured with anti-human IgG Fc capture (AHC) biosensor tips then associated with a dilution series of ligand. Data are from single experiments.

[6] = target: T4, A1-A2 domain of human ULBP2 with C-terminal 6x-His tag (monomer) (human, UniProt Q9BZM5 29-212); assay: as above
T4 construct: range 29-212; also called wild-type ULBP2; MIC-His ligand
T4 sequence: T3 sequence with W78R
From the text: as §1

[7] = target: T5, ULBP3-Fc (R&D Systems) (human, UniProt Q9BZM4 30-217); assay: ELISA; ligand-Fc coated, biotinylated Fc-wtNKG2D, streptavidin-HRP (legend: the Fc-NKG2D is titrated; axis on the sheet: nM ligand-Fc)
T5 construct: Bought; also called Ligand-Fc fusion; not shown: Fc of the bought fusion; not described
T5 sequence (looked up): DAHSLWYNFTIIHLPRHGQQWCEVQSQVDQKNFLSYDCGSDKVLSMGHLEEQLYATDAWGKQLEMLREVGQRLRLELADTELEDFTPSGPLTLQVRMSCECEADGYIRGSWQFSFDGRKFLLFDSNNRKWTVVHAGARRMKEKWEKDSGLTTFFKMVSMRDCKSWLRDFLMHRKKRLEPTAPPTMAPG

[8] = target: T6, MICB-Fc (R&D Systems) (human, UniProt Q29980 23-298, limits assumed); assay: as above
T6 construct: Bought; also called Ligand-Fc fusion; not shown: Fc of the bought fusion; not described
T6 sequence (looked up): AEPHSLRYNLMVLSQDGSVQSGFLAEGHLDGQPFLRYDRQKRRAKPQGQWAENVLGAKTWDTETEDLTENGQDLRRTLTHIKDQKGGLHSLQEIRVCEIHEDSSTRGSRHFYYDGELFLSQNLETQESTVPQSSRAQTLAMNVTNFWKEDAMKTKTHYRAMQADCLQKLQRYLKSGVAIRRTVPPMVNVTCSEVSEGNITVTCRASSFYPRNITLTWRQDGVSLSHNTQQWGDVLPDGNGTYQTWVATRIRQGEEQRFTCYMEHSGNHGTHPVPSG

[9] = target: T7, ULBP1-Fc (R&D Systems) (human, UniProt Q9BZM6 26-216); assay: as above
T7 construct: Bought; also called Ligand-Fc fusion; not shown: Fc of the bought fusion; not described
T7 sequence (looked up): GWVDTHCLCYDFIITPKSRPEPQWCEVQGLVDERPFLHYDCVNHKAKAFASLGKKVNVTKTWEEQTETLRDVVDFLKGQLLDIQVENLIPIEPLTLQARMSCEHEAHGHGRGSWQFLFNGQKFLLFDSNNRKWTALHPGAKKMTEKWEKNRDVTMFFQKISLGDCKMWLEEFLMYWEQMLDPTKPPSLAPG

[10] = target: T8, MICA-Fc (R&D Systems) (human, UniProt Q29983 24-308, limits assumed); assay: as above
T8 construct: Bought; also called Ligand-Fc fusion; not shown: Fc of the bought fusion; not described
T8 sequence (looked up): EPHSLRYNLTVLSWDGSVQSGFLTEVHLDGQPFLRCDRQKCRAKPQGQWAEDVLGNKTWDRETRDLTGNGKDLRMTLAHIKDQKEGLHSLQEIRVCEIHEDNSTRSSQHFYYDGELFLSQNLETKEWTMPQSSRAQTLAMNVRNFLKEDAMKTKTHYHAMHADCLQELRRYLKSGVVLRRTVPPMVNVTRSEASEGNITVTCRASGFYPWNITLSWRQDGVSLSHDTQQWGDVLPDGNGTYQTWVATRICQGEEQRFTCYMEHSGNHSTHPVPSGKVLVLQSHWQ

[11] = target: T9, A1-A2 domain of human MICB with C-terminal 6x-His tag (monomer) (human, UniProt Q29980 24-205); assay: Octet BLI, response against concentration (legend: monomeric ligands; axis on the sheet: nM Fc-NKG2D.wt)
T9 construct: range 24-205; also called MIC-His ligand
T9 sequence: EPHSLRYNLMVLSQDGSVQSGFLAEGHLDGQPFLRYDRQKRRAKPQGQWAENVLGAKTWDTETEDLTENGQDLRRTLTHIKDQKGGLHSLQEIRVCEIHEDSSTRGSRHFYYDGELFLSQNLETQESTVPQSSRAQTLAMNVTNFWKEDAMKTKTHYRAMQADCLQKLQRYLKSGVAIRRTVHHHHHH

[12] = target: T10, A1-A2 domain of human ULBP3 with C-terminal 6x-His tag (monomer) (human, UniProt Q9BZM4 30-212); assay: as above
T10 construct: range 30-212; also called MIC-His ligand
T10 sequence: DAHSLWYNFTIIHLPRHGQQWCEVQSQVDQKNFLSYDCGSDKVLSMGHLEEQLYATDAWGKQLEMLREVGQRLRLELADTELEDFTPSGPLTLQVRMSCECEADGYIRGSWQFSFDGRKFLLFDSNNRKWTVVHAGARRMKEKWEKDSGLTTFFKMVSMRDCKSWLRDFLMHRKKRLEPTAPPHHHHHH

[13] = target: T11, Fc-iNKG2D.YA (NKG2D ectodomain Y152A fused to the C-terminus of human IgG1 Fc) (human, UniProt P26718 78-216); assay: ELISA; wells coated with Fc-iNKG2D.YA, Rituximab.LC-U2S3 titrated, HRP anti-human kappa
T11 construct: range 78-216; it is not tied by words to this Fc fusion; not shown: human IgG1 Fc
T11 sequence: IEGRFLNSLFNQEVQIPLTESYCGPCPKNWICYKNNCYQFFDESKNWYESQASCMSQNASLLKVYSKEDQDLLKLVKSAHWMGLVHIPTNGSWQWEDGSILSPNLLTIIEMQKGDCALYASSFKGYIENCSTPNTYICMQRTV

[14] = target: T11, Fc-iNKG2D.YA (NKG2D ectodomain Y152A …); assay: Octet BLI; Fc-iNKG2D.YA captured on AHC tips, two-fold dilution series of MicAbody from 50 nM
From the text: The y-axes corresponding to binding responses were set to the same scale for all sensograms.

“Trastuzumab.LC-Rae1b (bispecific antibody)” showed an EC50 (read off the curve) [1] of 1000 pM.

B1: R3Mab (anti-FGFR3) heavy-chain C-terminal fusion of U2S3 (MicAbody) (bispecific antibody, part only; not given: R3Mab variable regions and Fc, IgG1, not shown: a dimerising Fc or GST)
heavy, part: GGGSEPHSLSYDITVIPKFRPGPRWCAVQGQVDEKTFLHYDCGQKTVTPVSPLGKKLQVTTAWKAQNPVLREVVDILTEQLWDIQLENYTPKEPLTLQARMSCEQKAEGHSSGSWQFSFDGQIFLLFDSEKRMWTTVHPGARKMKEKWENDKVVATKLYLWSMGDCIGWLEDFLMGMDSTLEPS
For B1, the EC50 (read off the curve) [2] was 20 pM.

B2: R3Mab (anti-FGFR3) heavy-chain C-terminal fusion of wild-type ULBP2 (MicAbody) (bispecific antibody, part only; not given: R3Mab variable regions and Fc, IgG1, not shown: a dimerising Fc or GST)
heavy, part: GGGSDPHSLCYDITVIPKFRPGPRWCAVQGQVDEKTFLHYDCGNKTVTPVSPLGKKLNVTTAWKAQNPVLREVVDILTEQLRDIQLENYTPKEPLTLQARMSCEQKAEGHSSGSWQFSFDGQIFLLFDSEKRMWTTVHPGARKMKEKWENDKVVAMSFHYFSMGDCIGWLEDFLMGMDSTLEPSAG
For B2, the EC50 (read off the curve) [3] was 400 pM.

B3: R3Mab (anti-FGFR3) heavy-chain C-terminal fusion of ULBP2 R81W (MicAbody) (bispecific antibody, part only; not given: R3Mab variable regions and Fc, IgG1, not shown: a dimerising Fc or GST)
heavy, part: B2 heavy, part with R82W
B3 was tested, and the EC50 (read off the curve) [3] was 20 pM.

B4: Fc-wtNKG2D (wild-type NKG2D ectodomain fused to the C-terminus of human IgG1 Fc) (Fc fusion)
chain: T11 sequence with A79Y
notes: range 78-216; Dimeric secreted protein from Expi293 cells; also called Fc-NKG2D; not shown: human IgG1 Fc
For B4, the binding result [4] was “binds”, the Kd [5] was 8000 pM and the Kd [6] was 350000 pM. B4: binds [7]; binds [8]; binds [9]. B4: binds [10]; binds [11]; binds [12].

B5: Rituximab.LC-U2S3 MicAbody (U2S3 A1-A2 domain fused to the C-terminus of the rituximab kappa light chain) (bispecific antibody)
heavy: QVQLQQPGAELVKPGASVKMSCKASGYTFTSYNMHWVKQTPGRGLEWIGAIYPGNGDTSYNQKFKGKATLTADKSSSTAYMQLSSLTSEDSAVYYCARSTYYGGDWYFNVWGAGTTVTVSAA
light (part 1 of 2): QIVLSQSPAILSASPGEKVTMTCRASSSVSYIHWFQQKPGSSPKPWIYATSNLASGVPVRFSGSGSGTSYSLTISRVEAEDAATYYCQQWTSNPPTFGGGTKLEIK
light (part 2 of 2): APTSSSGGGGSEPHSLSYDITVIPKFRPGPRWCAVQGQVDEKTFLHYDCGQKTVTPVSPLGKKLQVTTAWKAQNPVLREVVDILTEQLWDIQLENYTPKEPLTLQARMSCEQKAEGHSSGSWQFSFDGQIFLLFDSEKRMWTTVHPGARKMKEKWENDKVVATKLYLWSMGDCIGWLEDFLMGMDSTLEPS
notes: also called Rit-S3; Ritux-S3; not shown: human IgG1 heavy-chain constant region, ADCC-deficient; human kappa light-chain constant region
For B5, the “EC50 (read off the curve)” value [13] was roughly 30 pM and the Kd [14] was 10 pM.

— patent US20240287202A1 (XYPHOS BIOSCIENCES, published 2024)
